Measured values reported in patent US11407811B2, “Fusion protein, preparation method therefor and use thereof” (JIANGSU RONGTAI BIOTECH CO., LTD., priority 2017, dated 2022).
Marks after values point to notes of the source that are not given here.

Columns and labels:
[1] = test system: melanoma cell line B16F10; test: MTT assay, proliferation of melanoma cell B16F10; format: cell-based
Protocol: (§1) The MTT assay was used to detect the inhibitory effect of the integrin blocker fusion protein obtained in Example 1 on the proliferation of various tumor cells, including melanoma cell B16F10, gastric cancer cell MGC-803, lung cancer cell A549, liver cancer cell Hep-G2, breast cancer cell MDA-MB-231, colon cancer cell HCT-116, human glioma U87, and cervical cancer cell Hela.
(§2) The tumor cells were cultured in a 5% CO2 incubator at 37° C. to a density of 90% or more, and collected by trypsinization. The cells were resuspended in the culture liquid and counted under a microscope. The cell concentration was adjusted to 3.0×10^4 cells/mL. The cell suspension was inoculated into a 96-well plate at 100 μL per well and cultured overnight in a 5% CO2 incubator at 37° C. […] After the cells were fully adhered, each dilution was added to a 96-well plate at 100 μL per well, respectively. […] 20 μL of 5 mg/mL MTT was added to each well of a 96-well plate, and incubation was continued for 4 hours. The medium was aspirated and 100 μL of DMSO per well were added to dissolve. The absorbance was measured at 570 nm with a microplate reader with a reference wavelength of 630 nm, and the proliferation inhibition (PI) was calculated. The formula is as follows: […]
(§3) where Ntest is the OD value of the test group and Ncontrol is the OD value of the blank control group.
(§4) The test was repeated 5 times independently. The results obtained from the test were calculated as mean±SD, and statistical t-test was performed. P<0.05 was considered as a significant difference, and P<0.01 was considered as an extremely significant difference.

[2] = test system: cervical cancer cell Hela; test: MTT assay, proliferation of cervical cancer cell Hela; format: cell-based
Protocol: as §1, §2, §3, §4

[3] = test system: peritoneal capillary permeability in mice; test: Peritoneal capillary permeability in mice (HAc, Evans blue); format: in vivo; conditions: for Exudation rate (OD590) / PI (%): mice
Protocol: The drug was administered once by injection (EDSM needed to be administered twice a day), and the blank model group was given an equal volume of physiological saline and fed normally. On the 5th day, a 5 g/L Evans blue physiological saline solution was injected into the tail vein at […], followed by intraperitoneal injection ([…]) of a HAc solution (6 mL/L) to induce inflammation. After 20 min, the mice were sacrificed by cervical dislocation. 5 mL of physiological saline was intraperitoneally injected, the abdomen was gently rubbed for 2 min, the abdominal cavity was cut, a peritoneal washing solution was collected and centrifuged at 4000 rpm for 10 min, 1 mL of supernatant was taken, and 3 mL of physiological saline was added to obtain 4 mL of dilution. The absorbance OD value of the dilution was measured by an ultraviolet spectrophotometer at a wavelength of 590 nm, and the amount of pigment exudation was expressed by the OD590 nm value, and the peritoneal capillary permeability in mice was examined.

[4] = test system: angiogenesis of chicken embryo chorioallantoic membrane; test: Chicken embryo chorioallantoic membrane (CAM) angiogenesis assay; format: in vivo; conditions: for Blood vessel number / PI: CAM, 72 hours
Excerpt: In this study, CAM assay was used to investigate the activity of fusion protein I, protein II, protein III, protein IV, and protein V to inhibit angiogenesis in vivo. The study has shown that the biosynthesis rate of collagen reached the maximum on the 8th to 11th day of chicken embryo development, which was the most vigorous stage of angiogenesis, and the body's immune system had not yet been fully established at that time, and thus the chicken embryos developed to the 8th day was selected to be administered. […] The following steps were used.
(1) The White Leghorn chicken embryos on day 6 were cultured in a 37° C. incubator at 60%-70% humidity for two days.
(2) A 1.0 cm×1.0 cm window was drilled above the chicken embryo air sac, and the inner membrane was torn off with forceps to expose the chorioallantoic membrane. Lens paper having a diameter of 5 mm was used as a loading carrier, and was placed on the chorioallantoic membrane of the chicken embryo air sac. Filter paper with PBS was used as a blank group, and the administration group was added with different doses of fusion protein.
(3) The chicken embryo air sac was sealed with a sterile transparent tape, and after culturing at 37° C. for 72 hours, the chicken embryo air sac was opened, and a fixative (formaldehyde:acetone=1:1) was added for fixation for 15 minutes. The chorioallantoic membrane to which the lens paper was adhered was taken out, the distribution of the new blood vessels was observed, and the new blood vessels were counted and photographed. Five replicates were set for each dose and the results were statistically analyzed.

[5] = test system: retinal blood vessels in OIR mice; test: Retinal blood vessels in OIR mice; format: in vivo; conditions: dose 64 μg, injected into the vitreous body on day 13, evaluated on day 17
Excerpt: Establishment of the OIR model: young mice and their mothers were exposed to 75% hyperoxic environment from day 7 to day 12 after birth of C57/B16 mice so that capillaries in the central retina rapidly disappeared. On day 12, the mice were returned to indoor air and the retinal blood vessels exposed to hyperoxia rapidly disappeared, which caused extensive abnormal neovascularization, and the central part of the retina remained largely avascular for a long time. After the blood vessels disappeared completely, the fusion protein (administration group, the doses of fusion protein I, protein II, protein III, protein IV, and protein V were all 64 μg) or physiological saline (negative group) was injected into the vitreous body on day 13. Retinal vessels were evaluated on day 17 (labeled as unclosed vessels, […] of Texas Red-labeled tomato lectin was injected into the left ventricle and cycled for 5 minutes).

B1: Protein II: IgG2-Fc linked to antiangiogenesis polypeptide EDSM-Y via a flexible linker; SEQ ID NO: 17 (protein)
chain: ERKCCVECPPCPAPPVAGPSVFLFPPKPKDTLMISRTPEVTCVVVDVSHEDPEVQFNWYVDGVEVHNAKTKPREEQFNSTFRVVSVLTVVHQDWLNGKEYKCKVSNKGLPAPIEKTISKTKGQPREPQVYTLPPSREEMTKNQVSLTCLVKGFYPSDISVEWESNGQPENNYKTTPPMLDSDGSFFLYSKLTVDKSRWQQGNVFSCSVMHEALHNHYTQKSLSLSPGKGGGGSGGGGSGGGGSFQPVLHLVALNSPLSGGMRGIRGADFQCFQQARAVGLAGTFRAGGGGRGD
- A570 nm/A630 nm ([1]; dose 1 μg/mL): 1.1137 ± 0.0370
- PI (%) ([1]; dose 1 μg/mL): 11.17%
- A570 nm/A630 nm ([1]; dose 2 μg/mL): 1.0250 ± 0.0230
- PI (%) ([1]; dose 2 μg/mL): 18.24%
- A570 nm/A630 nm ([1]; dose 4 μg/mL): 0.8986 ± 0.0731
- PI (%) ([1]; dose 4 μg/mL): 28.32%
- A570 nm/A630 nm ([1]; dose 8 μg/mL): 0.7243 ± 0.0421
- PI (%) ([1]; dose 8 μg/mL): 42.23%
- A570 nm/A630 nm ([1]; dose 16 μg/mL): 0.6400 ± 0.0661
- PI (%) ([1]; dose 16 μg/mL): 48.95%
- A570 nm/A630 nm ([1]; dose 32 μg/mL): 0.5034 ± 0.0286
- PI (%) ([1]; dose 32 μg/mL): 59.85%
- A570 nm/A630 nm ([1]; dose 64 μg/mL): 0.3867 ± 0.0195
- PI (%) ([1]; dose 64 μg/mL): 69.16%
- PI (%) ([1]; dose 128 μg/mL): 76.59%
- A570 nm/A630 nm ([1]; dose 256 μg/mL): 0.1777 ± 0.0212
- PI (%) ([1]; dose 256 μg/mL): 85.83%
- A570 nm/A630 nm ([2]; dose 1 μg/mL): 0.7798 ± 0.0386
- PI (%) ([2]; dose 1 μg/mL): 2.43%
- A570 nm/A630 nm ([2]; dose 2 μg/mL): 0.7412 ± 0.0407
- PI (%) ([2]; dose 2 μg/mL): 7.26%
- A570 nm/A630 nm ([2]; dose 4 μg/mL): 0.6946 ± 0.0272
- PI (%) ([2]; dose 4 μg/mL): 13.09%
- A570 nm/A630 nm ([2]; dose 8 μg/mL): 0.6312 ± 0.0313
- PI (%) ([2]; dose 8 μg/mL): 21.02%
- A570 nm/A630 nm ([2]; dose 16 μg/mL): 0.5418 ± 0.0286
- PI (%) ([2]; dose 16 μg/mL): 32.21%
- A570 nm/A630 nm ([2]; dose 32 μg/mL): 0.4788 ± 0.0262
- PI (%) ([2]; dose 32 μg/mL): 40.09%
- A570 nm/A630 nm ([2]; dose 64 μg/mL): 0.4023 ± 0.0314
- PI (%) ([2]; dose 64 μg/mL): 49.66%
- PI (%) ([2]; dose 64 μg/mL, listed as protein II): about 45%
- A570 nm/A630 nm ([2]; dose 128 μg/mL): 0.2878 ± 0.0275
- PI (%) ([2]; dose 128 μg/mL): 63.99%
- A570 nm/A630 nm ([2]; dose 256 μg/mL): 0.1748 ± 0.0303
- PI (%) ([2]; dose 256 μg/mL): 78.13%
- inhibition of the increase of peritoneal capillary permeability induced by glacial acetic acid ([3]; in words): could significantly inhibit the increase of peritoneal capillary permeability
- Exudation rate (OD590) ([3]; dose 8 mg/kg): 0.51 ± 0.06
- PI (%) ([3]; dose 8 mg/kg): 26.09%
- Exudation rate (OD590) ([3]; dose 32 mg/kg): 0.34 ± 0.03
- PI (%) ([3]; dose 32 mg/kg): 50.72%
- Exudation rate (OD590) ([3]; dose 128 mg/kg): 0.32 ± 0.07
- PI (%) ([3]; dose 128 mg/kg): 53.62%
- Blood vessel number ([4]; 8 μg): 102 ± 10
- PI ([4]; 8 μg): 17.07%
- Blood vessel number ([4]; 32 μg): 83 ± 11
- PI ([4]; 32 μg): 32.52%
- Blood vessel number ([4]; 128 μg): 66 ± 7
- PI ([4]; 128 μg): 46.34%
- inhibitory effect on angiogenesis of CAM ([4]; high dose): ~50%
- Area (mm^2) occupied by neovascular clusters [5]: 0.146 ± 0.011* mm^2
- Reduce (%) [5]: 30.81%
- Reduce (%) ([5]; listed as protein II): 30.81%
